{
  "source": "patent US20060140858A1",
  "about": "“Drug pre-targeting by means of bi-specific antibodies and hapten constructs comprising a carrier peptide and the active agent(s)” (Immunomedics, Inc., priority 2002, published 2006)",
  "assay": "Pretargeting: I-125 F6 × 734-F(ab′)2, 72 h later In-111-IMP-224, biodistribution",
  "conditions": "female, mouse, in vivo, total radioactivity; for tissue to tissue ratio at 1 h / tissue to tissue ratio at 4 h / tissue to tissue ratio at 24 h: 10 uCi, tumor-to-normal organ ratio; for tissue uptake at 1 h / tissue uptake at 4 h / tissue uptake at 24 h: % ID/g tissue",
  "key": {"[1]": {"conditions": "nude (Taconic NCRNU), Blood, 1 h"}, "[2]": {"conditions": "nude (Taconic NCRNU), Blood, 4 h"}, "[3]": {"conditions": "nude (Taconic NCRNU), Blood, 24 h"}, "[4]": {"conditions": "nude (Taconic NCRNU), Kidney, 1 h"}, "[5]": {"conditions": "nude (Taconic NCRNU), Kidney, 4 h"}, "[6]": {"conditions": "nude (Taconic NCRNU), Kidney, 24 h"}, "[7]": {"conditions": "nude (Taconic NCRNU), Large Int., 1 h"}, "[8]": {"conditions": "nude (Taconic NCRNU), Large Int., 4 h"}, "[9]": {"conditions": "nude (Taconic NCRNU), Large Int., 24 h"}, "[10]": {"conditions": "nude (Taconic NCRNU), Lungs, 1 h"}, "[11]": {"conditions": "nude (Taconic NCRNU), Lungs, 4 h"}, "[12]": {"conditions": "nude (Taconic NCRNU), Lungs, 24 h"}, "[13]": {"conditions": "nude (Taconic NCRNU), Muscle, 1 h"}, "[14]": {"conditions": "nude (Taconic NCRNU), Small Int., 4 h"}, "[15]": {"conditions": "nude (Taconic NCRNU), Small Int., 24 h"}, "[16]": {"conditions": "nude (Taconic NCRNU), Stomach, 1 h"}, "[17]": {"conditions": "nude (Taconic NCRNU), Stomach, 4 h"}, "[18]": {"conditions": "nude (Taconic NCRNU), Stomach, 24 h"}},
  "data": [
    {"compound": "COc1cccc2c1C(=O)c1c(O)c3c(c(O)c1C2=O)C[C@@](O)(C(CO)=NNc1ccc(C(=O)N[C@@H](CCCCNC(=O)CN(CCN(CCN(CC(=O)O)CC(=O)O)CC(=O)O)CC(=O)O)C(=O)N[C@@H](Cc2ccc(O)cc2)C(=O)N[C@@H](CCCCNC(=O)CN(CCN(CCN(CC(=O)O)CC(=O)O)CC(=O)O)CC(=O)O)C(N)=O)cc1)C[C@@H]3O[C@H]1C[C@H](N)[C@H](O)[C@H](C)O1", "note": "[IMP 224, Dox = N—NH—C6H4—CO-Lys(DTPA)-Tyr-Lys(DTPA)-NH2]", "values": [
      {"measurement": "tissue to tissue ratio at 1 h", "setting": "NCRNU nude, GW-39, 1 h", "value": 1},
      {"measurement": "tissue to tissue ratio at 4 h", "setting": "NCRNU nude, GW-39, 4 h", "value": 1},
      {"measurement": "tissue to tissue ratio at 24 h", "setting": "NCRNU nude, GW-39, 24 h", "value": 1},
      {"measurement": "tissue to tissue ratio at 1 h", "setting": "NCRNU nude, Liver, 1 h", "value": "24 ± 5.9"},
      {"measurement": "tissue to tissue ratio at 4 h", "setting": "NCRNU nude, Liver, 4 h", "value": "35.4 ± 6.9"},
      {"measurement": "tissue to tissue ratio at 24 h", "setting": "NCRNU nude, Liver, 24 h", "value": "31.6 ± 5.8"},
      {"measurement": "tissue to tissue ratio at 1 h", "setting": "NCRNU nude, Tail, 1 h", "value": "9.4 ± 2.8"},
      {"measurement": "tissue to tissue ratio at 4 h", "setting": "NCRNU nude, Tail, 4 h", "value": "26.4 ± 5.2"},
      {"measurement": "tissue to tissue ratio at 24 h", "setting": "NCRNU nude, Tail, 24 h", "value": "55.9 ± 5.7"},
      {"measurement": "tissue to tissue ratio at 1 h", "setting": "NCRNU nude, Urine, 1 h", "value": "0.3 ± 0.5"},
      {"measurement": "tissue to tissue ratio at 4 h", "setting": "NCRNU nude, Urine, 4 h", "value": "0.71 ± 0.6"},
      {"measurement": "tissue to tissue ratio at 24 h", "setting": "NCRNU nude, Urine, 24 h", "value": "8.3 ± 1.3"},
      {"measurement": "tissue to tissue ratio at 1 h", "setting": "[1]", "value": "6.1 ± 2.5"},
      {"measurement": "tissue to tissue ratio at 4 h", "setting": "[2]", "value": "12.8 ± 2"},
      {"measurement": "tissue to tissue ratio at 24 h", "setting": "[3]", "value": "41.8 ± 6.3"},
      {"measurement": "tissue to tissue ratio at 1 h", "setting": "[4]", "value": "3 ± 0.5"},
      {"measurement": "tissue to tissue ratio at 4 h", "setting": "[5]", "value": "3.9 ± 0.5"},
      {"measurement": "tissue to tissue ratio at 24 h", "setting": "[6]", "value": "5 ± 0.5"},
      {"measurement": "tissue to tissue ratio at 1 h", "setting": "[7]", "value": "87.1 ± 35"},
      {"measurement": "tissue to tissue ratio at 4 h", "setting": "[8]", "value": "45.6 ± 19"},
      {"measurement": "tissue to tissue ratio at 24 h", "setting": "[9]", "value": "92.4 ± 38"},
      {"measurement": "tissue to tissue ratio at 1 h", "setting": "[10]", "value": "13.4 ± 2.7"},
      {"measurement": "tissue to tissue ratio at 4 h", "setting": "[11]", "value": "30.1 ± 4.9"},
      {"measurement": "tissue to tissue ratio at 24 h", "setting": "[12]", "value": "69 ± 9.4"},
      {"measurement": "tissue to tissue ratio at 1 h", "setting": "[13]", "value": "38.6 ± 13"},
      {"measurement": "tissue to tissue ratio at 4 h", "setting": "nude (Taconic NCRNU), Muscle, 4 h", "value": "727 ± 797"},
      {"measurement": "tissue to tissue ratio at 24 h", "setting": "nude (Taconic NCRNU), Muscle, 24 h", "value": "283 ± 46"},
      {"measurement": "tissue to tissue ratio at 4 h", "setting": "[14]", "value": "51.6 ± 14"},
      {"measurement": "tissue to tissue ratio at 24 h", "setting": "[15]", "value": "110 ± 13"},
      {"measurement": "tissue to tissue ratio at 1 h", "setting": "nude (Taconic NCRNU), Spleen, 1 h", "value": "28.7 ± 8.7"},
      {"measurement": "tissue to tissue ratio at 4 h", "setting": "nude (Taconic NCRNU), Spleen, 4 h", "value": "44.7 ± 10"},
      {"measurement": "tissue to tissue ratio at 24 h", "setting": "nude (Taconic NCRNU), Spleen, 24 h", "value": "47 ± 2.2"},
      {"measurement": "tissue to tissue ratio at 1 h", "setting": "[16]", "value": "48.7 ± 37"},
      {"measurement": "tissue to tissue ratio at 4 h", "setting": "[17]", "value": "128 ± 46"},
      {"measurement": "tissue to tissue ratio at 24 h", "setting": "[18]", "value": "147 ± 39"},
      {"measurement": "tissue uptake at 1 h", "setting": "[1]", "value": "1.8 ± 0.6", "unit": "%ID/g"},
      {"measurement": "tissue uptake at 4 h", "setting": "[2]", "value": "0.9 ± 0.2", "unit": "%ID/g"},
      {"measurement": "tissue uptake at 24 h", "setting": "[3]", "value": 0.2, "unit": "%ID/g"},
      {"measurement": "tissue uptake at 1 h", "setting": "[4]", "value": "3.5 ± 0.6", "unit": "%ID/g"},
      {"measurement": "tissue uptake at 4 h", "setting": "[5]", "value": "2.8 ± 0.3", "unit": "%ID/g"},
      {"measurement": "tissue uptake at 24 h", "setting": "[6]", "value": "1.9 ± 0.2", "unit": "%ID/g"},
      {"measurement": "tissue uptake at 1 h", "setting": "[7]", "value": 0.1, "unit": "%ID/g"},
      {"measurement": "tissue uptake at 4 h", "setting": "[8]", "value": "0.3 ± 0.1", "unit": "%ID/g"},
      {"measurement": "tissue uptake at 24 h", "setting": "[9]", "value": "0.1 ± 0.1", "unit": "%ID/g"},
      {"measurement": "tissue uptake at 1 h", "setting": "[10]", "value": "0.8 ± 0.2", "unit": "%ID/g"},
      {"measurement": "tissue uptake at 4 h", "setting": "[11]", "value": 0.4, "unit": "%ID/g"},
      {"measurement": "tissue uptake at 24 h", "setting": "[12]", "value": 0.1, "unit": "%ID/g"},
      {"measurement": "tissue uptake at 1 h", "setting": "[13]", "value": "0.3 ± 0.2", "unit": "%ID/g"},
      {"measurement": "tissue uptake at 1 h", "setting": "nude (Taconic NCRNU), Small Int., 1 h", "value": "0.5 ± 0.4", "unit": "%ID/g"},
      {"measurement": "tissue uptake at 4 h", "setting": "[14]", "value": 0.2, "unit": "%ID/g"},
      {"measurement": "tissue uptake at 24 h", "setting": "[15]", "value": 0.1, "unit": "%ID/g"},
      {"measurement": "tissue uptake at 1 h", "setting": "[16]", "value": "0.8 ± 1.3", "unit": "%ID/g"},
      {"measurement": "tissue uptake at 4 h", "setting": "[17]", "value": 0.1, "unit": "%ID/g"},
      {"measurement": "tissue uptake at 24 h", "setting": "[18]", "value": 0.1, "unit": "%ID/g"}
    ]}
  ]
}
